{"source": "patent US20130108636A1", "key": {"gp140Con-s [1]": {"target": "gp140Con-s", "assay": "SPR; target not given, taken from Example 5"}, "gp140Con-s [2]": {"target": "gp140Con-s", "assay": "SPR (Biacore X100), gp140 amine-coupled on a CM5 chip, single-cycle, monovalent model"}}}
{"substance": "mD1-CH2 (from UniProt P01730 26-124)", "values": [{"measurement": "fold decrease of association rate constant compared to mD1", "setting": "gp140Con-s [1]", "result": 80, "unit": "fold"}, {"measurement": "koff", "setting": "gp140Con-s [1]", "result": 0.0009, "unit": "s⁻¹"}, {"measurement": "kon", "setting": "gp140Con-s [1]", "result": 61000, "unit": "M⁻¹ s⁻¹"}]}
{"substance": "D1D2 (from UniProt P01730 26-203) (receptor)", "values": [{"measurement": "Kd", "setting": "gp140Con-s [2]", "result": 7.8, "unit": "nM"}, {"measurement": "koff", "setting": "gp140Con-s [1]", "result": 0.0013, "unit": "s⁻¹"}]}
